From the nanobody polyreactivity screen of Harvey et al. (2022)

Assay: yeast display, Sf9 membrane polyspecificity reagent, FACS + sequencing; frameworks hold sequencing errors
Method in brief: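 Sorting gates, low and high (top ~1%), were placed on anti-HA fluorescence to track expression and on streptavidin fluorescence to track reagent binding. A clone's polyreactivity label is taken from the gate it came out of. The reagent was 10% biotinylated, detergent-solubilized Sf9 membrane, applied for 1 hour at 4 °C to galactose-induced yeast display cells.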

Sequence | polyreactivity (PSR sort gate)
QVHLVESGGGLVQAGGSLRLSCAASGFTFSSNAMGWYRQAPGKERELVAAIRSGGTTKYADSVKGRFTISRDNAKNTLYLQMNSLKPEDTAVYYCAARIRDLAGYYYWGQGTQVTVSS | high polyreactivity
QVHLVESGGGLVQAGGSLRLSCAASGGIFSYYALGWYRQAPGKERELVAAISSGGTTYYADSVKGRFTISRDNAKNTVYLQMNSLKPEDTAVYYCALLVGHNYWGQGTQVTVSS | low polyreactivity
QVHLVESGGGLVQAGGSLRLSCAASGIIFGGNVMGWYRQAGGKERELVAAITWSGGTTYYADSVKGRFTISRDNAKNTVYLQMNSLKPEDTAVYYCAADRFYLDYVAGTYDYWGQGTQVTVSS | low polyreactivity
QVHLVESGGGLVQAGGSLRLSCAASGIIFSTYAMGWYRQAPGKERELVAAITSTGSTNYADSVKGRFTISRDNAKNTVYLQINRLKQEDTAVYYCAARYAGPSPTDTGHDYWGQGTQVTVSS | low polyreactivity
QVHLVESGGGLVQAGGSLRLSCAASGIIFYRYAMGWYRQAPGKESELVAAITRRTASTYYADSVKGRFTLSRDNAKNTVYLPLNSLKPEDSAVYYCSAYSPYSHIVDNFDYWGQGTQVTVSS | low polyreactivity
QVHLVESGGGLVQAGGSLRLSCAASGITLGYYVMGWYRQAPGKERELVAAISSSGGRTYYADSVKGRFTISRDNAKNTVYLQMNSLKPEDTAVYYCSADLGRGIYDYWGQGTQVTVSS | low polyreactivity
QVHLVESGGGLVQAGGSLRLSCAASGLIFGGYAMGWDRQAPGKERELVAAISSNSGSTYYADSVKGRFTISRDNAKNTVYLQMNSLKPEDTAVYYCIRYFYQGFDYWGQGTQVTVSS | high polyreactivity
QVHLVESGGGLVQAGGSLRLSCAASGLIFGRNAMGWYRQAPGKERELVAAISTRGGSTYYADSVKGRFTISRDNAKNTVYLQMNSLKPEDTAVYYCAARGSYGYDYWGQGPQVTVSS | high polyreactivity
QVHLVESGGGLVQAGGSLRLSCAASGLIFSFYPMGWYRQAPGKERELVAGINWRGGSTYYADSVKGRFTISRDNAKNTVYLQMNSLKPEETAVYYCAAPSYYYGYWGQGTQVTVLS | high polyreactivity
QVHLVESGGGLVQAGGSLRLSCAASGLTFNRYTMGWYRQAPGKESELVAAITSSGSTYYADSVKGRFTISRDNAKNTVNLQMNSLKPEDTAVDYCNTVYYDWFHYDYWGQGTQVTVSS | high polyreactivity
QVHLVESGGGLVQAGGSLRLSCAASGNSLRVYAMGWYRQAPGKERELVAAISYSSVNTYYADSVKGRFTISRDNAKNTVYLQMNSLKPEETAVYYCAADYFYYRRTQYDLRGYPYYYWGQGTQVTVSS | low polyreactivity
QVHLVESGGGLVQAGGSLRLSCAASGRIFATNAMGWYRPAPGKERELVATITRSAGRTYYADSVKGRFTISRDNAKNTVYLQMNSLKPEDTAVYYCAASYWDTEPGYREYDYWGQGTQVTVSS | low polyreactivity
QVHLVESGGGLVQAGGSLRLSCAASGRIFGRNAMGWYRQAPGKERELVAAISKRGGSTSYADSVKGRFTISRDNAKNTVYLQMNSLKPEDTAVYYCATSAPLVTSSGYGYWGHGTQVTVSS | high polyreactivity
QVHLVESGGGLVQAGGSLRLSCAASGRIFGVYAMGWYRQAPGKERELVAVISWSGTSTYYADSVKGRFTISRDYAKNTVYLQMNSLKPEDTAVYYCAADYIGITDYYAIVVYLGYDSWGQGTQVTVSS | high polyreactivity
QVHLVESGGGLVQAGGSLRLSCAASGRIFNPNAMGWYRQAPGKERELVAAITSGDSTNYADSVKGRFTISRDNAKNTVYLQMNSLKPEDTAVYYCAADWTYPYNSWGQGTQVTVSS | low polyreactivity
QVHLVESGGGLVQAGGSLRLSCAASGRIFNWYVMGWYRQAPGKERELVAAITSGGITKYADSVKGRFTISRDNAKNTVYLQMNSLKPEDTAVYYCAAYYRRYDYDYWGQGSQVTVSS | high polyreactivity
QVHLVESGGGLVQAGGSLRLSCAASGRIFPAYVMGWYRQAPGKERELVAGITSASSTYYADSVKGRFTISRDNAKNTVYLQMNSLKPEDTAVYYCAAVGYSVRQRYDYWGQGTQVTVSS | high polyreactivity
QVHLVESGGGLVQAGGSLRLSCAASGRIFRTYAMGWYRPAPGKERELVAAISGSGGRTYYADSVKGRFTISRDNAKNTVYLQMNSLIPEDTAVSYCAKYVSIVRYGSTTNYDYWGQGTQVTVSS | high polyreactivity
QVHLVESGGGLVQAGGSLRLSCAASGRIFRYNAMGWYRQAPVKESELVAAISSIGGRTYYADSVKGRFTISRDNAKNTVYLQMNSLQPEDTAVYNCAALSYYVDGEYDYWGQGTQVTVSS | high polyreactivity
QVHLVESGGGLVQAGGSLRLSCAASGRIFSNNAMGWYRQAPGKERELVATITGSGGRTYYADSVKGRFTISRDNAKNTVYLQMNSLKPEDTAVYYCAAVKRPDYYYWGQGTQVTVSS | high polyreactivity
QVHLVESGGGLVQAGGSLRLSCAASGRIFSWYTMGWYRQAPGKERELVAVITSGGTTKYADSVKGRFTISRDNAKNTVYLQMNSLKPEDTAVYYCNVAGRDYAVRWGSFDYWGQGTQVTVSS | low polyreactivity
QVHLVESGGGLVQAGGSLRLSCAASGRIFVPYVMGWNRQAPGTERELVASISDSDTSTYYADSVKGRFTISRDNAKNTVYVEMISLKPEDTAVYDCNVDYWGQGTHVTVSS | low polyreactivity

Sequence | polyreactivity (PSR sort gate)
QVHLVESGGGLVQAGGSLRLSCAASGRIFYGYAMGWYRQAPWKEREFVAAITWRGGTFYADSVKGRFTISRDNAKNTVYLQMNSLKPEDTAVYYCAARVSSYGRYDYWGQGTQVTVSS | high polyreactivity
QVHLVESGGGLVQAGGSLRLSCAASGRIFYYNAIGWYRQAPGKERELVANITRARGTYYADSVKGPFTISRDNAKNTVYLQMNSLKPEDTAVYYCAKRHPIVDDYKGDYWGQGTQVTVSS | low polyreactivity
QVHLVESGGGLVQAGGSLRLSCAASGRIFYYNTMGWYRQAPGKERELVAAITTNGGSTYYADSVKGRFTISRDNAKNTVYLQMNSLKPEDTAVYYCNRDRYPYYYAYNYWGQGTQVTVSS | low polyreactivity
QVHLVESGGGLVQAGGSLRLSCAASGRIIWNYAMGWYRQAPGKERELVASINRSGGTTYYADSVKGRFTISRDNAKNTVYLQMNSLKPEDTAVYYCNTVYYGNFYSTRYDYWGQGTQVTVSS | high polyreactivity
QVHLVESGGGLVQAGGSLRLSCAASGRILGYYAMVWYRQAPGKERELVAAISRGGRTNYADSVKGRFTISRDNAKNTVYLQMNSLKPEDTAVYYCAKDVAGLFHVGALYYYWGQGTQVTVSS | low polyreactivity
QVHLVESGGGLVQAGGSLRLSCAASGRILNWNAMGWYRQAPGKDREFVAAIRTSGGDSTSYADSVKGRFTISRDNAKNTVYLQMTSLKPEDTAVFDCAKTVWWYYRYPFDYWGQGTQVTVSS | low polyreactivity
QVHLVESGGGLVQAGGSLRLSCAASGRILTSNAMGWYRQAPGKERELVAAISWSGGSTYYADSVKGRFTISRVNAKNTVYLQMNSLKPEDTAVYYCAAPFTTTFDYWGQGTLVTVSS | low polyreactivity
QVHLVESGGGLVQAGGSLRLSCAASGRISYFYAMGWYRQAPGKESELVATITTSAGRTYYADSVKGRFTISRDNAKNTVYLLMNSLKPEDTAVYYCAASRYTYPYNYWGQGTQVTVSS | high polyreactivity
QVHLVESGGGLVQAGGSLRLSCAASGRIYKYNAMGWYRQAPGKERELVAAISSGGSTNYADSVKGRFTISRDNAKNTVYLQMNSLKPEDTAVYYCAADGTRVSSFHYLVWLGYWGQGTQVTVSS | low polyreactivity
QVHLVESGGGLVQAGGSLRLSCAASGRNSLRNGMGWYKQAPGKEWELDPAITSGSSTDYADSVKGRFTISRDNAKNTVDLEMNSLKPEDTAVSYCAKDLLQYGPGAGRYDYWGQGTQVTVSS | low polyreactivity
QVHLVESGGGLVQAGGSLRLSCAASGRTFAPNAMGWYIQAPGKERELVAAISYNSGTTYYADSVKGRFTISRDNAKNTVYLQMNSLKPEDTAVYYCAARRYYKYDWGQGTQVTVSS | high polyreactivity
QVHLVESGGGLVQAGGSLRLSCAASGRTFGYYAMGWYRQAPGKERELVATISGRAGRTYYADSVKGRFTISRDNAKNTVYLQMNSLKPEDTAVYYCATRSLQKYYWIANSYGYWGHGTQVTVSS | high polyreactivity
QVHLVESGGGLVQAGGSLRLSCAASGRTFQYNAMGWYRQSPGTERELVAAISWRGARTYYADSVKGRFTISRDYAKNTVYLQMNSLNPEDTAVYYCAAAPYGYRRYEYWGQGTQVTVSS | high polyreactivity
QVHLVESGGGLVQAGGSLRLSCAASGRTFRQYAMGWNIQAPGKERELVATISSGGSTYYADSVKGRFTISRDNAKNTVYLQMNSLKPEDTSVYYCAAASGTKRLYRGTRGDYWGQGTQVTVSS | low polyreactivity
QVHLVESGGGLVQAGGSLRLSCAASGRTFTGYAMGWYRQAPGKEREFVAAISSGGVRTYYADSVKGRFTISRDNAKNTVYLQMNSLKPEDTAVYYCNARQVYYRGTFRYSYDYWGQGTQVTVSS | high polyreactivity
QVHLVESGGGLVQAGGSLRLSCAASGRTFVRYAMGWYRQAPGKERELVAAISLRGGRTYYADSVKGRFTISRDNAKNTVYLQMNSLKPEDTAVYYCAARSYPTGASYDYWGQGTQVTVSS | high polyreactivity
QVHLVESGGGLVQAGGSLRLSCAASGRTFVYNSMGWYRQAPGKERELVAAISSDGASTYYADSVKGRFTISRDNAKNTVYLQMNSLKPEDTAVYYCAADFSYYSYEHYYWGQGTQVTVSS | low polyreactivity
QVHLVESGGGLVQAGGSLRLSCAASGRTFWIYGMGWYRPATGKERELVAAITRSGGSTNYADSVKGRFTLSRDNAKNNVYLQMNSLKPEVTAVYYGAADTWYPGYYAYDYRGQGTQVTVSS | high polyreactivity
QVHLVESGGGLVQAGGSLRLSCAASGRTFYRYAMGWYRQAPGKERELVAAINTGGSTYYADSVKGRFTISRDNAKTTVYLQMNSLKPEVTAVYYCAAEAASWWGYGYWGQGTKVTVSS | high polyreactivity
QVHLVESGGGLVQAGGSLRLSCAASGSIFAVYAMGWYRQAPGKERELVAAITRSGRTSYADSVKGRFTISRDNAKNTVYLQMNSLKPEDTAVFYCAVRTYYPTFGGFYYWGQGTQVTVSS | high polyreactivity
QVHLVESGGGLVQAGGSLRLSCAASGSIFEAYAMGWSRQAPGKERELVAVISWRGGLTYYPDSVKGRFTISRDNAKNTLYLQMNSLKPDDTAVYYCNKAYWWHQVGLPRNYEYWGQGTQVTVSS | low polyreactivity
